Our source for the self-cleavage values is the RNAGym collection of RNA variant scans (doi:10.7554/elife.90254).

B1: LINE1-full (parent)
chain: UACGUAGGUGGUUUUCCCCUGAUAGUGCUAAGGGGGCCUGGAAGUUUGGACUGGGCAGAGCUCAACACAGCGUGGCAAAGUGGCUGUGGCUAGACUGCCUCUCUGGAUUCCUCGUCACUCAGCAGGGCAUCUCUGAGAGAAAUGCC

Variants of B1 are the subject of this data set. As to the kind of experiment: self-cleavage, relative activity (ratio to wild type); higher = more cleavage; in vitro, sequencing; the parent is a self-cleaving ribozyme.
With UACGUAGGUGGUUUUCCCCUGAUAGUGCUUAGGGGGCCUGGAAGUUUGGACUGGGCAGAGCUCAACACAGCGUGGCAAAGUGGCUGUGGCUAGACUGCCUCUCUGGAUUCCUCGUCACUCAGCAUGGCAUCUCUGAGAGAAAUGCC [A30U G125U], the self-cleavage was 1.17.
Take UACGUAGGUGGUUUUCCCCUGAUAGUGCUUAAGGGGCCUGGAAGUUUGGACUGGGCAGAGCUCAACACAGCGUGGCAAAGUGGCUGUGGCUAGACUGCCUCUCUGGAUUCCUCGUCACUCAGCAGGGCAUCUCUGAGAGAAAUGCC [A30U G32A]: the self-cleavage came to 0.89.
As to UACGUAGGUGGUUUUCCCCUGAUAGUGCUUAGGGGGCCUGGAAGUUUGGACUGGGCAGAGCUCAACACAGCGUGGCAAAGUGGCUGCGGCUAGACUGCCUCUCUGGAUUCCUCGUCACUCAGCAGGGCAUCUCUGAGAGAAAUGCC [A30U U87C], the self-cleavage came to 0.23.
Consider UACGUAGGUGGUUUUCCCCUGAUAGUGCUUAGGGGGCCUGGAAGUUUGGACUGGGCAGAGCUCAACACUGCGUGGCAAAGUGGCUGUGGCUAGACUGCCUCUCUGGAUUCCUCGUCACUCAGCAGGGCAUCUCUGAGAGAAAUGCC [A30U A69U], for which the self-cleavage turned out to be 0.1.
Take UACGUAGGUGGUUUUCCCCUGAUAGUGCUUAGGGGGCCUGGAAGUUUGGACUGGGCAGAGCUCAACACAGCGUGGCAAAGUGGCUGUGGCUAGACUGCCUCUCUGGAUUCCUCGUCACUCAGCAGGGCACCUCUGAGAGAAAUGCC [A30U U130C]: the self-cleavage was 1.05.
Take UACGUAGGUGGUUUUCCCCUGAUAGUGCUUAGGGGGCCUGGAAGUUUGGACUGGGCAGAGCUCAACACAGCGUGGCAAAGUGGCUGUGGCUGGACUGCCUCUCUGGAUUCCUCGUCACUCAGCAGGGCAUCUCUGAGAGAAAUGCC [A30U A92G]: the self-cleavage amounted to 0.11.
Take UACGUAGGUGGUUUUCCCCUGAUAGUGCUUAGGGGGCCUGGAAGUUUGGACUGGGCAGAGCUCAACACAGCGUGGCAAAGUGGCUGUGGCUAGGCUGCCUCUCUGGAUUCCUCGUCACUCAGCAGGGCAUCUCUGAGAGAAAUGCC [A30U A94G]: the self-cleavage is 0.55.
Take UACGUAGGUGGUUUUCCCCUGAUAGUGCUUAGGGGGCCUGGAAGUUUGGACUGGGCUGAGCUCAACACAGCGUGGCAAAGUGGCUGUGGCUAGACUGCCUCUCUGGAUUCCUCGUCACUCAGCAGGGCAUCUCUGAGAGAAAUGCC [A30U A57U]: the self-cleavage was determined as 0.13.
On to UACGUAGGUGGUUUUCCCCUGAUAGUGCUUAGGGGGCCUGGAAGUUUGGACUGGGCAGAGCCCAACACAGCGUGGCAAAGUGGCUGUGGCUAGACUGCCUCUCUGGAUUCCUCGUCACUCAGCAGGGCAUCUCUGAGAGAAAUGCC [A30U U62C], for which the self-cleavage was found to be 0.07.
Consider UACGUAGGUGGUUUUCCCCUGAUAGUGCUUAGGGGGCCUGGAUGUUUGGACUGGGCAGAGCUCAACACAGCGUGGCAAAGUGGCUGUGGCUAGACUGCCUCUCUGGAUUCCUCGUCACUCAGCAGGGCAUCUCUGAGAGAAAUGCC [A30U A43U], for which the self-cleavage turned out to be 0.58.
Regarding UACGUAGGUGGUUUUCCCCUGAUAGUGCUUAGGGGGCCUGGAAGUUUGGACUGGGCAGAGCUCAACACAGCGUGGCAAAGUGGCUGUGGCUAGACUGCCUUUCUGGAUUCCUCGUCACUCAGCAGGGCAUCUCUGAGAGAAAUGCC [A30U C101U], the self-cleavage was 1.35.
UACGUAGGUGGUUUUCCCCUGAUAGUGCUUAGGGGGCCUGGAAGUUUGGACUGGGCAGAGCUCAACACAGCGUGGCAAAGUAGCUGUGGCUAGACUGCCUCUCUGGAUUCCUCGUCACUCAGCAGGGCAUCUCUGAGAGAAAUGCC [A30U G82A]: the self-cleavage was found to be 1.57.
Next, UACGUAGGUGGUUUUCCCCUGAUAGUGCUUAGGGGGCCUGGAAGUUUGGACUGGGCAGAGCUCAACACAGCGUGGCAAAGUGGCUGUGGGUAGACUGCCUCUCUGGAUUCCUCGUCACUCAGCAGGGCAUCUCUGAGAGAAAUGCC [A30U C90G]: 0.09; UACGUAGGUGGUUUUCCCCUGAUAGUGCUUAGGGGGCCUGGAAGGUUGGACUGGGCAGAGCUCAACACAGCGUGGCAAAGUGGCUGUGGCUAGACUGCCUCUCUGGAUUCCUCGUCACUCAGCAGGGCAUCUCUGAGAGAAAUGCC [A30U U45G]: 0.74.
Consider UACGUAGGUGGUUUUCCCCUGAUAGUGCUUAGGGGGCCUGGAAGUUUGGACUGGGCAGAGCUCAACACAGCGUGGCGAAGUGGCUGUGGCUAGACUGCCUCUCUGGAUUCCUCGUCACUCAGCAGGGCAUCUCUGAGAGAAAUGCC [A30U A77G], for which the self-cleavage was 1.25.
As for UACGUAGGUGGUUUUCCCCUGAUAGUGCUUAGGGGGCCUGGAAGUUUGGACUGGGCAGAGCUCAACACAGCGUGGCAAAGUGGCUGUGGCUAGACUGCCUCUCUGGACUCCUCGUCACUCAGCAGGGCAUCUCUGAGAGAAAUGCC [A30U U108C], the self-cleavage was 0.41.
As for UACGUAGGUGGUUUUCCCCUGAUAGUGCUUAGGGGGCCUGGAAGUUUGGACUGGGAAGAGCUCAACACAGCGUGGCAAAGUGGCUGUGGCUAGACUGCCUCUCUGGAUUCCUCGUCACUCAGCAGGGCAUCUCUGAGAGAAAUGCC [A30U C56A], the self-cleavage amounted to 0.09.
On to UACGUAGGUGGUUUUCCCCUGAUAGUGCUUAGGGGGCCUGGAAGUUUGGACUGGGCAGAGCUCAACACAGCGUGGCAAAGUGGCUGUGGCUAGACUGCCUCUCUGGAUUCCUCGUCACUCAGCCGGGCAUCUCUGAGAGAAAUGCC [A30U A124C], for which the self-cleavage stood at 1.05.
On to UACGUAGGUGGUUUUCCCCUGAUAGUGCUUAGGGAGCCUGGAAGUUUGGACUGGGCAGAGCUCAACACAGCGUGGCAAAGUGGCUGUGGCUAGACUGCCUCUCUGGAUUCCUCGUCACUCAGCAGGGCAUCUCUGAGAGAAAUGCC [A30U G35A], for which the self-cleavage amounted to 1.07.
Take UACGUAGGUGGUUUUCCCCUGAUAGUGCUUAGGGGGCCUGGAAGUUAGGACUGGGCAGAGCUCAACACAGCGUGGCAAAGUGGCUGUGGCUAGACUGCCUCUCUGGAUUCCUCGUCACUCAGCAGGGCAUCUCUGAGAGAAAUGCC [A30U U47A]: the self-cleavage is 1.15.
Regarding UACGUAGGUGGUUUUCCCCUGAUAGUGCUUAGGGGGCCUGGAAGUUUGGACUGGGCAGAGCUCAACACAGCGUGGCAAAGUGGCUGUGGCUAGACUGCCUCUCUGGAUUCCUCGUCACUCAGCAGGGCAUCUCUGAGAGAAAUACC [A30U G144A], the self-cleavage was found to be 0.75.
UACGUAGGUGGUUUUCCCCUGAUAGUGCUUAGGGGGCCUGGAAGUUUUGACUGGGCAGAGCUCAACACAGCGUGGCAAAGUGGCUGUGGCUAGACUGCCUCUCUGGAUUCCUCGUCACUCAGCAGGGCAUCUCUGAGAGAAAUGCC [A30U G48U]: the self-cleavage was determined as 0.71.
On to UACGUAGGUGGUUUUCCCCUGAUAGUGCUUAGGGGGCCUGGAAGUUUGGACUGGGCAGAGCUCAACACAGCGUGGCAAAGUGGCUGUGGCUAGACUGCCUCUCUGGAUUCCUCGUCACUCAGCAGGGCAUCACUGAGAGAAAUGCC [A30U U132A], for which the self-cleavage was determined as 1.22.
Under UACGUAGGUGGUUUUCCCCUGAUAGUGCUUAGGGGGCCUGGAAGUCUGGACUGGGCAGAGCUCAACACAGCGUGGCAAAGUGGCUGUGGCUAGACUGCCUCUCUGGAUUCCUCGUCACUCAGCAGGGCAUCUCUGAGAGAAAUGCC [A30U U46C] stands 1.12; under UACGUAGGUGGUUUUCCCCUGAUAGUGCUUAGGGGGCCUGGAAGUGUGGACUGGGCAGAGCUCAACACAGCGUGGCAAAGUGGCUGUGGCUAGACUGCCUCUCUGGAUUCCUCGUCACUCAGCAGGGCAUCUCUGAGAGAAAUGCC [A30U U46G], 1.14; under UACGUAGGUGGUUUUCCCCUGAUAGUGCUUAGGGGGCCUGGAAGUUUGGACUGGGCAGAGCUCAACACAGCGUGGCAAAGUGGCUGUGGCUAGACUGCCACUCUGGAUUCCUCGUCACUCAGCAGGGCAUCUCUGAGAGAAAUGCC [A30U U100A], 0.9.
Under UACGUAGGUGGUUUUCCCCUGAUAGUGCUUAGGGGGCCUGGAAGUUUGGACUGGGCAGAGCUCAACACAGCGUGGCAAAGUGGCUGUGGCUAGACUGCCUCUCUGGAUUCCUCGUCGCUCAGCAGGGCAUCUCUGAGAGAAAUGCC [A30U A117G] stands 2.32; under UACGUAGGUGGUUUUCCCCUGAUAGUGCUUAGGGGGCCUGGAAGUUUGGACUGGGCAGAGCUCAACACAGCGUGGCAAAGUGGCUGUGGCUAGACUGCCUCUCUGGGUUCCUCGUCACUCAGCAGGGCAUCUCUGAGAGAAAUGCC [A30U A107G], 1.28.
Turning to UACGUAGGUGGUUUUCCCCUGAUAGUGCUUAGGGGGCCUGGAAGUUUGGACUGGGCAGAGCUCAACACAGCGUGGCAAAGUGGCUGUGGCUAGACUGCCUCUCUGGAUUCCUCGUCACUCAGCAGGGCAUCUCUGAGAGAGAUGCC [A30U A141G], the self-cleavage was 0.87.
For the variant UACGUAGGUGGUUUUCCCCUGAUAGUGCUUAGGGGGCCUGGAAGUUUGGACUGGGCAGAGCUCAACACAGCGUGGCAACGUGGCUGUGGCUAGACUGCCUCUCUGGAUUCCUCGUCACUCAGCAGGGCAUCUCUGAGAGAAAUGCC [A30U A79C], the self-cleavage worked out at 1.19.
As to UACGUAGGUGGUUUUCCCCUGAUAGUGCUUAGGGGGCCUGGAAGUUUGGGCUGGGCAGAGCUCAACACAGCGUGGCAAAGUGGCUGUGGCUAGACUGCCUCUCUGGAUUCCUCGUCACUCAGCAGGGCAUCUCUGAGAGAAAUGCC [A30U A50G], the self-cleavage was found to be 2.04.
As to UACGUAGGUGGUUUUCCCCUGAUAGUGCUUAGGGGGCCUGGAAGUUUGGACUGGGCAGAGCUCAACACAGCGUGGCAAAGUGGCUGUGGCUAGACUGCCUCUCCGGAUUCCUCGUCACUCAGCAGGGCAUCUCUGAGAGAAAUGCC [A30U U104C], the self-cleavage was 1.31.
Under UACGUAGGUGGUUUUCCCCUGAUAGUGCUUAGGGGGCCUGGAAGUUUGGACUGGGCAGAGCUCAACACAGCGUGGCAAAGUGGCUGUGGCUAGACUGCCUCUCAGGAUUCCUCGUCACUCAGCAGGGCAUCUCUGAGAGAAAUGCC [A30U U104A] stands 1.93; under UACGUAGGUGGUUUUCCCCUGAUAGUGCUUAGGGGGCCUGGAAGUUUGGACUGGGCAGAGCUCAACACAGCGUGGCAAAGUGGCUGUGGCCAGACUGCCUCUCUGGAUUCCUCGUCACUCAGCAGGGCAUCUCUGAGAGAAAUGCC [A30U U91C], 0.56; under UACGUAGGUGGUUUUCCCCUGAUAGUGCUUAGGGGGCCUGGAAGUUUGGACUGGGCAAAGCUCAACACAGCGUGGCAAAGUGGCUGUGGCUAGACUGCCUCUCUGGAUUCCUCGUCACUCAGCAGGGCAUCUCUGAGAGAAAUGCC [A30U G58A], 0.18.
Consider UACGUAGGUGGUUUUCCCCUGAUAGUGCUUAGGGGGCCUGGAAGUUUGGACUGGGCAGAGCUCAACACAGCGUGGCAAAGUGGCUGUGGCUAGACUGCCUCUCUGGAUUCCUCGUCACUCAGCAGGGCAUCUCUGGGAGAAAUGCC [A30U A136G], for which the self-cleavage was found to be 1.4.
As for UACGUAGGUGGUUUUCCCCUGAUAGUGCUUAGGGGGCCUGGAAGUUUGGACUGGGCAGAGCUCACCACAGCGUGGCAAAGUGGCUGUGGCUAGACUGCCUCUCUGGAUUCCUCGUCACUCAGCAGGGCAUCUCUGAGAGAAAUGCC [A30U A65C], the self-cleavage amounted to 0.1.
With UACGUAGGUGGUUUUCCCCUGAUAGUGCUUAGGGGGCCUGGAAGUUUGGACUGGGCAGAGCUCAGCACAGCGUGGCAAAGUGGCUGUGGCUAGACUGCCUCUCUGGAUUCCUCGUCACUCAGCAGGGCAUCUCUGAGAGAAAUGCC [A30U A65G], the self-cleavage was 0.06.
For UACGUAGGUGGUUUUCCCCUGAUAGUGCUUAGGGGGCCUGGAAGUUUGGACUGGGCAGAGCUCAACACAGCGUGGCAAAGUGGCUGUGGCUAGACUGCCUCUCUGGAUUCCCCGUCACUCAGCAGGGCAUCUCUGAGAGAAAUGCC [A30U U112C], the self-cleavage was determined as 1.08.
